From patent US20110312518A1

Legend:
[1] = biological target: phospho-CrkL recombinant protein; test: sandwich immunoassay, 96-well plate, 12 hours: Y244 capture, phospho-CrkL analyte, 4G10 and FITC anti-mouse detection
[2] = biological target: phospho-CrkL recombinant protein; test: sandwich immunoassay, microfluidic chip, 1 hour: Y244 capture, phospho-CrkL analyte, 4G10-coated beads counted
[3] = system: T1, Src peptide substrate KVEKIGEGTYGVVYK
T1 sequence: KVEKIGEGTYGVVYK

Current limit of detection [1] | Current limit of detection [2] | Substance | detection limit (kinase activity, beads bound/counted) [3]
1 nM | 100 pM | rabbit anti-CrkL monoclonal antibodies (clone Y244, Novus Biologicals #NB110-56895) (antibody) | 
 |  | Src kinase | resulting in a detection limit of 100 fM
